Experimental data published in paper PMC3981736, “The Domain-Specific and Temperature-Dependent Protein Misfolding Phenotype of Variant Medium-Chain acyl-CoA Dehydrogenase” (PLoS ONE, 2014).

Target: the molecule itself
Experiment: SEC; re-chromatography after Factor Xa cleavage of the MBP tag; HiLoad 16/600 Superdex 200, 20 mM HEPES pH 7.0, 200 mM NaCl, 4 °C; tetrameric fraction pooled

B1: medium-chain acyl-CoA dehydrogenase (MCAD) wild-type (enzyme, human, UniProt P11310-1 26-421, looked up)
chain: KANRQREPGLGFSFEFTEQQKEFQATARKFAREEIIPVAAEYDKTGEYPVPLIRRAWELGLMNTHIPENCGGLGLGTFDACLISEELAYGCTGVQTAIEGNSLGQMPIIIAGNDQQKKKYLGRMTEEPLMCAYCVTEPGAGSDVAGIKTKAEKKGDEYIINGQKMWITNGGKANWYFLLARSDPDPKAPANKAFTGFIVEADTPGIQIGRKELNMGQRCSDTRGIVFEDVKVPKENVLIGDGAGFKVAMGAFDKTRPVVAAGAVGLAQRALDEATKYALERKTFGKLLVEHQAISFMLAEMAMKVELARMSYQRAAWEVDSGRRNTYYASIAKAFAGDIANQLATDAVQILGGNGFNTEYPVEKLMRDAKIYQIYEGTSQIQRLIVAREHIDKYKN
notes: medium-chain acyl-CoA dehydrogenase (MCAD), human, cDNA of the ACADM gene cloned into pMALc2X; also called WT; wild-type MCAD; source: E. coli BL21-CodonPlus, purified (MBPTrap, SEC, Factor Xa cleavage, SEC); not shown: MBP, N-terminal, cleaved
  stoichiometry N: 4

B2: MCAD p.Ala52Val (enzyme, human, UniProt P11310-1 26-421, looked up)
chain: KANRQREPGLGFSFEFTEQQKEFQATVRKFAREEIIPVAAEYDKTGEYPVPLIRRAWELGLMNTHIPENCGGLGLGTFDACLISEELAYGCTGVQTAIEGNSLGQMPIIIAGNDQQKKKYLGRMTEEPLMCAYCVTEPGAGSDVAGIKTKAEKKGDEYIINGQKMWITNGGKANWYFLLARSDPDPKAPANKAFTGFIVEADTPGIQIGRKELNMGQRCSDTRGIVFEDVKVPKENVLIGDGAGFKVAMGAFDKTRPVVAAGAVGLAQRALDEATKYALERKTFGKLLVEHQAISFMLAEMAMKVELARMSYQRAAWEVDSGRRNTYYASIAKAFAGDIANQLATDAVQILGGNGFNTEYPVEKLMRDAKIYQIYEGTSQIQRLIVAREHIDKYKN
notes: medium-chain acyl-CoA dehydrogenase (MCAD), human, ACADM cDNA in pMALc2X with a missense mutation found in newborn screening; number counts on the precursor (initiator methionine +1); also called p.Ala27Val; A27V; source: E. coli DH5α co-transformed with pGroESL, purified (MBPTrap, SEC, Factor Xa cleavage, SEC); not shown: MBP, N-terminal, cleaved
  stoichiometry N: 4

B3: MCAD p.Arg206Cys (enzyme, human, UniProt P11310-1 26-421, looked up)
chain: KANRQREPGLGFSFEFTEQQKEFQATARKFAREEIIPVAAEYDKTGEYPVPLIRRAWELGLMNTHIPENCGGLGLGTFDACLISEELAYGCTGVQTAIEGNSLGQMPIIIAGNDQQKKKYLGRMTEEPLMCAYCVTEPGAGSDVAGIKTKAEKKGDEYIINGQKMWITNGGKANWYFLLACSDPDPKAPANKAFTGFIVEADTPGIQIGRKELNMGQRCSDTRGIVFEDVKVPKENVLIGDGAGFKVAMGAFDKTRPVVAAGAVGLAQRALDEATKYALERKTFGKLLVEHQAISFMLAEMAMKVELARMSYQRAAWEVDSGRRNTYYASIAKAFAGDIANQLATDAVQILGGNGFNTEYPVEKLMRDAKIYQIYEGTSQIQRLIVAREHIDKYKN
notes: medium-chain acyl-CoA dehydrogenase (MCAD), human, ACADM cDNA in pMALc2X with a missense mutation found in newborn screening; number counts on the precursor (initiator methionine +1); also called R206C; p.Arg181Cys; source: E. coli DH5α co-transformed with pGroESL, purified (MBPTrap, SEC, Factor Xa cleavage, SEC); not shown: MBP, N-terminal, cleaved
  stoichiometry N: 4

B4: MCAD p.Arg413Ser (enzyme, human, UniProt P11310-1 26-421, looked up)
chain: KANRQREPGLGFSFEFTEQQKEFQATARKFAREEIIPVAAEYDKTGEYPVPLIRRAWELGLMNTHIPENCGGLGLGTFDACLISEELAYGCTGVQTAIEGNSLGQMPIIIAGNDQQKKKYLGRMTEEPLMCAYCVTEPGAGSDVAGIKTKAEKKGDEYIINGQKMWITNGGKANWYFLLARSDPDPKAPANKAFTGFIVEADTPGIQIGRKELNMGQRCSDTRGIVFEDVKVPKENVLIGDGAGFKVAMGAFDKTRPVVAAGAVGLAQRALDEATKYALERKTFGKLLVEHQAISFMLAEMAMKVELARMSYQRAAWEVDSGRRNTYYASIAKAFAGDIANQLATDAVQILGGNGFNTEYPVEKLMRDAKIYQIYEGTSQIQRLIVASEHIDKYKN
notes: medium-chain acyl-CoA dehydrogenase (MCAD), human, ACADM cDNA in pMALc2X with a missense mutation found in newborn screening; number counts on the precursor (initiator methionine +1); also called R413S; p.Arg388Ser; source: E. coli DH5α co-transformed with pGroESL, purified (MBPTrap, SEC, Factor Xa cleavage, SEC); not shown: MBP, N-terminal, cleaved
  stoichiometry N: 4

B5: MCAD p.Tyr158His (enzyme, human, UniProt P11310-1 26-421, looked up)
chain: KANRQREPGLGFSFEFTEQQKEFQATARKFAREEIIPVAAEYDKTGEYPVPLIRRAWELGLMNTHIPENCGGLGLGTFDACLISEELAYGCTGVQTAIEGNSLGQMPIIIAGNDQQKKKYLGRMTEEPLMCAHCVTEPGAGSDVAGIKTKAEKKGDEYIINGQKMWITNGGKANWYFLLARSDPDPKAPANKAFTGFIVEADTPGIQIGRKELNMGQRCSDTRGIVFEDVKVPKENVLIGDGAGFKVAMGAFDKTRPVVAAGAVGLAQRALDEATKYALERKTFGKLLVEHQAISFMLAEMAMKVELARMSYQRAAWEVDSGRRNTYYASIAKAFAGDIANQLATDAVQILGGNGFNTEYPVEKLMRDAKIYQIYEGTSQIQRLIVAREHIDKYKN
notes: medium-chain acyl-CoA dehydrogenase (MCAD), human, ACADM cDNA in pMALc2X with a missense mutation found in newborn screening; number counts on the precursor (initiator methionine +1); also called Y158H; p.Tyr133His; source: E. coli DH5α co-transformed with pGroESL, purified (MBPTrap, SEC, Factor Xa cleavage, SEC); not shown: MBP, N-terminal, cleaved
  stoichiometry N: 4

B6: MCAD p.Lys329Glu (enzyme, human, UniProt P11310-1 26-421, looked up)
chain: KANRQREPGLGFSFEFTEQQKEFQATARKFAREEIIPVAAEYDKTGEYPVPLIRRAWELGLMNTHIPENCGGLGLGTFDACLISEELAYGCTGVQTAIEGNSLGQMPIIIAGNDQQKKKYLGRMTEEPLMCAYCVTEPGAGSDVAGIKTKAEKKGDEYIINGQKMWITNGGKANWYFLLARSDPDPKAPANKAFTGFIVEADTPGIQIGRKELNMGQRCSDTRGIVFEDVKVPKENVLIGDGAGFKVAMGAFDKTRPVVAAGAVGLAQRALDEATKYALERKTFGKLLVEHQAISFMLAEMAMEVELARMSYQRAAWEVDSGRRNTYYASIAKAFAGDIANQLATDAVQILGGNGFNTEYPVEKLMRDAKIYQIYEGTSQIQRLIVAREHIDKYKN
notes: medium-chain acyl-CoA dehydrogenase (MCAD), human, ACADM cDNA in pMALc2X with a missense mutation found in patients; number counts on the precursor (initiator methionine +1); also called K329E; p.Lys304Glu; source: E. coli DH5α co-transformed with pGroESL, purified (MBPTrap, SEC, Factor Xa cleavage, SEC); not shown: MBP, N-terminal, cleaved
  stoichiometry N: 4

B7: MCAD p.Asp266Gly (enzyme, human, UniProt P11310-1 26-421, looked up)
chain: KANRQREPGLGFSFEFTEQQKEFQATARKFAREEIIPVAAEYDKTGEYPVPLIRRAWELGLMNTHIPENCGGLGLGTFDACLISEELAYGCTGVQTAIEGNSLGQMPIIIAGNDQQKKKYLGRMTEEPLMCAYCVTEPGAGSDVAGIKTKAEKKGDEYIINGQKMWITNGGKANWYFLLARSDPDPKAPANKAFTGFIVEADTPGIQIGRKELNMGQRCSDTRGIVFEDVKVPKENVLIGGGAGFKVAMGAFDKTRPVVAAGAVGLAQRALDEATKYALERKTFGKLLVEHQAISFMLAEMAMKVELARMSYQRAAWEVDSGRRNTYYASIAKAFAGDIANQLATDAVQILGGNGFNTEYPVEKLMRDAKIYQIYEGTSQIQRLIVAREHIDKYKN
notes: medium-chain acyl-CoA dehydrogenase (MCAD), human, ACADM cDNA in pMALc2X with a missense mutation found in newborn screening; number counts on the precursor (initiator methionine +1); also called D266G; p.Asp241Gly; source: E. coli DH5α co-transformed with pGroESL, purified (MBPTrap, SEC, Factor Xa cleavage, SEC); not shown: MBP, N-terminal, cleaved
  stoichiometry N: 4

B8: MCAD p.Tyr67His (enzyme, human, UniProt P11310-1 26-421, looked up)
chain: KANRQREPGLGFSFEFTEQQKEFQATARKFAREEIIPVAAEHDKTGEYPVPLIRRAWELGLMNTHIPENCGGLGLGTFDACLISEELAYGCTGVQTAIEGNSLGQMPIIIAGNDQQKKKYLGRMTEEPLMCAYCVTEPGAGSDVAGIKTKAEKKGDEYIINGQKMWITNGGKANWYFLLARSDPDPKAPANKAFTGFIVEADTPGIQIGRKELNMGQRCSDTRGIVFEDVKVPKENVLIGDGAGFKVAMGAFDKTRPVVAAGAVGLAQRALDEATKYALERKTFGKLLVEHQAISFMLAEMAMKVELARMSYQRAAWEVDSGRRNTYYASIAKAFAGDIANQLATDAVQILGGNGFNTEYPVEKLMRDAKIYQIYEGTSQIQRLIVAREHIDKYKN
notes: medium-chain acyl-CoA dehydrogenase (MCAD), human, ACADM cDNA in pMALc2X with a missense mutation found in newborn screening; number counts on the precursor (initiator methionine +1); also called Y67H; p.Tyr42His; source: E. coli DH5α co-transformed with pGroESL, purified (MBPTrap, SEC, Factor Xa cleavage, SEC); not shown: MBP, N-terminal, cleaved
  stoichiometry N: 4

B9: MCAD p.Arg334Lys (enzyme, human, UniProt P11310-1 26-421, looked up)
chain: KANRQREPGLGFSFEFTEQQKEFQATARKFAREEIIPVAAEYDKTGEYPVPLIRRAWELGLMNTHIPENCGGLGLGTFDACLISEELAYGCTGVQTAIEGNSLGQMPIIIAGNDQQKKKYLGRMTEEPLMCAYCVTEPGAGSDVAGIKTKAEKKGDEYIINGQKMWITNGGKANWYFLLARSDPDPKAPANKAFTGFIVEADTPGIQIGRKELNMGQRCSDTRGIVFEDVKVPKENVLIGDGAGFKVAMGAFDKTRPVVAAGAVGLAQRALDEATKYALERKTFGKLLVEHQAISFMLAEMAMKVELAKMSYQRAAWEVDSGRRNTYYASIAKAFAGDIANQLATDAVQILGGNGFNTEYPVEKLMRDAKIYQIYEGTSQIQRLIVAREHIDKYKN
notes: medium-chain acyl-CoA dehydrogenase (MCAD), human, ACADM cDNA in pMALc2X with a missense mutation found in newborn screening; number counts on the precursor (initiator methionine +1); also called R334K; p.Arg309Lys; source: E. coli DH5α co-transformed with pGroESL, purified (MBPTrap, SEC, Factor Xa cleavage, SEC); not shown: MBP, N-terminal, cleaved
  stoichiometry N: 4
